# Target: the molecule itself
# Assay: cryo-EM structure
protein,measurement,value
"SgrAI, type II restriction endonuclease, his-tagged wild type (enzyme, Streptomyces griseus) PFTYSIEATRNLATTERCIQDIRNAPVRNRSTQFQLAQQNMLAYTFGEVIPGFASAGINGMNYRDVIGRPVENAVTEGTHFFRDDFRVDSNAKAKVAGDIFEIVSSAVMWNCAARWNSLMVGEGWRSQPRYSRPTLSPSPRRQVAVLNLPRSFDWVSLLVPESQEVIEEFRAGLRKDGLGLPTSTPDLAVVVLPEEFQNDEMWREEIAGLTRPNQILLSGAYQRLQGRVQPGEISLAVAFKRSLRSDRLYQPLYEANVMQLLLEGKLGAPKVEFEVHTLAPEGTNAFVTYEAASLYGLAEGRSAVHRAIRELYVPPTAADLARRFFAFLNERMELVNG",binding result,binds

# Source: paper doi:10.1101/585943 (bioRxiv, 2019)
